Experimental data from US20250043022A1 (JIANGSU HENGRUI PHARMACEUTICALS, published 2025).
Numbering of substitutions follows the chain as printed.

B1: hu15H3L1 (antibody, human IgG1, kappa, V domains shown)
VH: EFQLVQSGAEVKKPGASVKVSCKASGYSFTDHNMNWVRQAPGQRLEWMGLINPNYGTADYNQKFKGRVTITVDQSASTAYMELSSLRSEDTAVYYCARGSSLFAYWGQGTLVTVSS
VL: DIQMTQSPSSLSASVGDRVTITCKASQGVDTAVAWYQQKPGKVPKLLIYWASTRHTGVPSRFSGSGSGTDFTLTISSLQPEDVATYYCQQYSRYPLTFGQGTKLEIKR
B2: hu15H2L2 (antibody, human IgG1, kappa, V domains shown)
VH: B1 VH with V72R, Q74T
VL: B1 VL with V43S, S60D
B3: hu15H5L1 (antibody, human IgG1, kappa, V domains shown)
VH: B1 VH with M48I, V68A, I70L, S77T
VL: B1 VL
B4: hu15H5L2 (antibody, human IgG1, kappa, V domains shown)
VH: B1 VH with M48I, V68A, I70L, S77T
VL: B1 VL with V43S, S60D
B5: hu15H1L1 (antibody, human IgG1, kappa, V domains shown)
VH: B1 VH with S28T, V72R, Q74T
VL: B1 VL
B6: hu15H1L2 (antibody, human IgG1, kappa, V domains shown)
VH: B1 VH with S28T, V72R, Q74T
VL: B1 VL with V43S, S60D
B7: hu15H4L1 (antibody, human IgG1, kappa, V domains shown)
VH: B1 VH with I70L, S77T
VL: B1 VL
B8: hu15H2L1 (antibody, human IgG1, kappa, V domains shown)
VH: B1 VH with V72R, Q74T
VL: B1 VL
B9: hu15H3L2 (antibody, human IgG1, kappa, V domains shown)
VH: B1 VH
VL: B1 VL with V43S, S60D
B10: hu43H2L1 (antibody, human IgG1, kappa, V domains shown)
VH: EVQFVESGGGLVQPGGSLRLSCAASGFTFSNYWMNWVRQAPGKGLEWVAQVRLKSDNYATHYAESVKGRFTISREDAKNSAYLQMNSLRAEDTAVYYCSENYYGPAGPFDFWGQGTTVTVSS
VL: DIQMTQSPSSVSASVGDRVTITCKASQNVHTSVAWYQQKPGKSPKLLIYSASNRYSGVPSRFSGSGSGTDFTLTISSLQPEDFATYYCQQYSSYPLTFGQGTKLEIKR
B11: hu46H3L1 (antibody, human IgG1, kappa, V domains shown)
VH: EVQLVESGGGLVKPGGSLRLSCAASGFTFSNYGMSWVRQAPGKGIKWVSTIGSGGGYTYYSDSVKGRFTISRDNAKNSLYLQMNSLRAEDTAVYYCVRHPQIGYWGQGTLVTVSS
VL: B10 VL with V11L, N28S, H30G, S32A, S43A, N53S, S56T, Q89H, Q100G, L104V
B12: hu46H3L3 (antibody, human IgG1, kappa, V domains shown)
VH: B11 VH
VL: DIQMTQSPSSLSASVGDRVTITCKASQSVGTAVAWYQQKPGKAPKLLIYSASSRYTGVPDRFSGSGSGTDFTLTISSLQPEDFADYFCHQYSSYPLTFGGGTKVEIKR
B13: hu46H3L2 (antibody, human IgG1, kappa, V domains shown)
VH: B11 VH
VL: B12 VL with D60S
B14: hu43H3L1 (antibody, human IgG1, kappa, V domains shown)
VH: B10 VH with V37L
VL: B10 VL
B15: hu43H1L1 (antibody, human IgG1, kappa, V domains shown)
VH: B10 VH with E75D, D76N
VL: B10 VL
B16: hu46H1L3 (antibody, human IgG1, kappa, V domains shown)
VH: B11 VH with I45L, K46E, V97A
VL: B12 VL
B17: hu46H4L2 (antibody, human IgG1, kappa, V domains shown)
VH: B11 VH with S49A
VL: B12 VL with D60S
B18: hu46H1L2 (antibody, human IgG1, kappa, V domains shown)
VH: B11 VH with I45L, K46E, V97A
VL: B12 VL with D60S
B19: hu46H2L3 (antibody, human IgG1, kappa, V domains shown)
VH: B11 VH with I45L, K46E
VL: B12 VL
B20: hu46H2L1 (antibody, human IgG1, kappa, V domains shown)
VH: B11 VH with I45L, K46E
VL: B12 VL with D60S, D85T, F87Y
B21: hu46H4L1 (antibody, human IgG1, kappa, V domains shown)
VH: B11 VH with S49A
VL: B12 VL with D60S, D85T, F87Y
B22: hu46H1L1 (antibody, human IgG1, kappa, V domains shown)
VH: B11 VH with I45L, K46E, V97A
VL: B12 VL with D60S, D85T, F87Y
B23: hu31H1L2 (antibody, human IgG1, kappa, V domains shown)
VH: EVQLVESGGGLVQPGGSLRLSCAASGFTFSDYYMAWVRQAPGKGLEWVASINYDGSSTYYLDSLKSRFTISRDNAKNSLYLQMNSLRAEDTAVYYCAGSDGYWAWFAYWGQGTLVTVSS
VL: DIQMTQSPSSLSASVGDRVTITCRASGNIHNYLAWYQQKPGKAPQLLVYNAETLADGVPSRFSGSGSGTDFTLTISSLQPEDFATYYCQHFWSTPPTFGGGTKVEIKR
B24: hu31H1L3 (antibody, human IgG1, kappa, V domains shown)
VH: B23 VH
VL: B23 VL with A43S, D70Q
B25: hu71H3L1 (antibody, human IgG1, kappa)
heavy: not shown
light: DIVMTQTPLSLPVTPGEPASISCRSSQSLVHSYGNTYLHWYLQKPGQSPQLLIYKVSNRFSGVPDRFSGSGSGTDFTLKISRVEAEDVGVYYCSQTTHVPWTFGGGTKVEIKRTVAAPSVFIFPPSDEQLKSGTASVVCLLNNFYPREAKVQWKVDNALQSGNSQESVTEQDSKDSTYSLSSTLTLSKADYEKHKVYACEVTHQGLSSPVTKSFNRGEC
B26: hu71H1L1 (antibody, human IgG1, kappa)
heavy: not shown
light: B25 light
B27: hu41H1L2 (antibody, human IgG1, kappa, V domains shown)
VH: EVQLVQSGAEVKKPGASVKVSCKASGYTFTSYGISWVRQAPGQGLEWMGEIFPRRGNTYYNEKFRGRVTMTTDKSTSTAYMELRSLRSDDTAVYYCARVFDGYYNYAMDYWGQGTTVTVSS
VL: DIQMTQSPSSLSASVGDRVTITCRASQDIGSSLNWLQQKPGKAIKRLIYATSSLDSGVPSRFSGSRSGTDYTLTISSLQPEDFATYYCLQYASSPYTFGGGTKVEIKR
B28: hu41H2L3 (antibody, human IgG1, kappa, V domains shown)
VH: B27 VH with M70L, T72A
VL: B27 VL with K42G, T69S
B29: hu41H2L1 (antibody, human IgG1, kappa, V domains shown)
VH: B27 VH with M70L, T72A
VL: B27 VL with I44P, Y71F
B30: hu41H1L3 (antibody, human IgG1, kappa, V domains shown)
VH: B27 VH
VL: B27 VL with K42G, T69S
B31: hu41H1L1 (antibody, human IgG1, kappa, V domains shown)
VH: B27 VH
VL: B27 VL with I44P, Y71F
B32: hu50H1L1 (antibody, human IgG1, kappa)
heavy: not shown
light: DIVMTQSPLSLPVTPGEPASISCRSSQSILHSNGNTYLEWYLQKPGQSPQLLIYRVSNRFSGVPDRFSGSGSGTDFTLKISRVEAEDVGVYYCFQGLHVPPTFGQGTKLEIKRTVAAPSVFIFPPSDEQLKSGTASVVCLLNNFYPREAKVQWKVDNALQSGNSQESVTEQDSKDSTYSLSSTLTLSKADYEKHKVYACEVTHQGLSSPVTKSFNRGEC
B33: hu50H2L1 (antibody, human IgG1, kappa)
heavy: not shown
light: B32 light
B34: hu50H2L3 (antibody, human IgG1, kappa, V domains shown)
VH: EVQLVQSGAEVKKPGASVKVSCKASGFTFTNYGISWVRQAPGQGLEWMGEIYPRSGNTYYNTNFKGRVTLTADKSTSTAYMELRSLRSEDTAVYYCARNPFTTVVEGFAFWGQGTLVTVSS
VL: DIVMTQSPLSLPVTPGEPASISCRSSQSILHSYGNTYLEWYLQKPGQSPQLLIYRVSNRFSGVPDRFSGSGSGTDFTLKISRVEAEDVGVYYCFQGLHVPPTFGQGTKLEIKR
B35: hu50H2L2 (antibody, human IgG1, kappa)
heavy: not shown
light: B32 light with I2V, V3F
B36: hu50H1L3 (antibody, human IgG1, kappa, V domains shown)
VH: B34 VH with L70M, A72T
VL: B34 VL

Each binder was assayed against T1, human PSMA on cells (Cho-hPSMA, CHO-K1 cells overexpressing full-length human PSMA) (human, UniProt Q04609 1-750) (assay: cell ELISA (OD450), Cho-hPSMA cells).
T1 construct: whole, on cells; also called cell surface PSMA; PSMA-expressing Lncap cells
Protocol: Experiment 2: Cells were cultured and inoculated onto a cell plate using the same method as in Experiment 1. The antibodies were serially diluted, and the antibody solutions were added to the cell plate at 100 μL/well. The plate was incubated at 4° C. for 1 h and then washed. An HRP-Goat Anti-human IgG (H+L) secondary antibody dilution (1:8000) was added to the cell plate at 100 μL/well, and the plate was incubated at 4° C. for 1 h and then washed by centrifugation. After color development with TMB, the reaction was stopped with 0.1 M sulfuric acid, and OD450 values were measured.

T1 sequence (Q04609 whole entry): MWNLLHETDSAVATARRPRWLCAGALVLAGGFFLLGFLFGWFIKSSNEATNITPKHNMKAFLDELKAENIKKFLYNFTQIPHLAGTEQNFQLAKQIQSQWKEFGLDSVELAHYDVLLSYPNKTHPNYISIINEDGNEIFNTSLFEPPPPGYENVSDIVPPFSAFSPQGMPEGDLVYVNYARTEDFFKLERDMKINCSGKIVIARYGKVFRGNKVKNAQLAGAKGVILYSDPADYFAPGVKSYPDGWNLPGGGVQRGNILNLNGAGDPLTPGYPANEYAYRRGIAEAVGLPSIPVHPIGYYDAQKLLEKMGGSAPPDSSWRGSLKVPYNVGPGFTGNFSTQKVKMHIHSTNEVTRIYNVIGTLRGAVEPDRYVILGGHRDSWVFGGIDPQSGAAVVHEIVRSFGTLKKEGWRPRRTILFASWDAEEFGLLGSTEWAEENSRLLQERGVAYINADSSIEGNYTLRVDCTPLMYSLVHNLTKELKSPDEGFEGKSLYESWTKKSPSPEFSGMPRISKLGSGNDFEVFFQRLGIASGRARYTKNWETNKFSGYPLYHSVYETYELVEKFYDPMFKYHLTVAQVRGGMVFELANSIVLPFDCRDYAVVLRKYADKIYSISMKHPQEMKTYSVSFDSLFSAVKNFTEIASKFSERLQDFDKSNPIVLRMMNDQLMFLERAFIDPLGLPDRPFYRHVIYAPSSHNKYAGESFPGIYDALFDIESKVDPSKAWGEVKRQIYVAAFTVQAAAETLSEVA

Row | EC50 [µg/mL] | Binder
1 | 0.0731 | B1
2 | 0.0874 | B2
3 | 0.0847 | B3
4 | 0.0818 | B4
5 | 0.0683 | B5
6 | 0.075 | B6
7 | 0.069 | B7
8 | 0.0871 | B8
9 | 0.0821 | B9
10 | 6.17 | B10
11 | 0.0597 | B11
12 | 0.0912 | B12
13 | 0.0617 | B13
14 | 2.83 | B14
15 | 6.22 | B15
16 | 0.123 | B16
17 | 0.079 | B17
18 | 0.0813 | B18

Row | EC50 [µg/mL] | Binder
19 | 0.0805 | B19
20 | 0.0788 | B20
21 | 0.0843 | B21
22 | 0.136 | B22
23 | 0.12 | B23
24 | 0.124 | B24
25 | 0.086 | B25
26 | 0.12 | B26
27 | 0.982 | B27
28 | 1.21 | B28
29 | 1.22 | B29
30 | 0.985 | B30
31 | 1.08 | B31
32 | 0.0679 | B32
33 | 0.0487 | B33
34 | 0.104 | B34
35 | 0.0477 | B35
36 | 0.108 | B36
